Measurements published in patent US20100137221A1, “PEPTIDES THAT INTERACT WITH TOPOISOMERASE I AND METHODS THEREOF” (UNIVERSITY UTAH RESEARCH FOUNDATION, priority 2007, published 2010).

Experiments:
top 1-DNA binding = biological target: T1, top 1-DNA binding (Homo sapiens, UniProt P11387); assay: Biosensor analysis of the effect of peptide on top 1-DNA binding; conditions: 50 nM CPP4; top 1 5, 10 and 20 nM; biotinylated linear DNA
T1 construct: made in house; host or cells: Sf9 insect cells (baculovirus) or human placenta
T1 sequence (P11387 1-765): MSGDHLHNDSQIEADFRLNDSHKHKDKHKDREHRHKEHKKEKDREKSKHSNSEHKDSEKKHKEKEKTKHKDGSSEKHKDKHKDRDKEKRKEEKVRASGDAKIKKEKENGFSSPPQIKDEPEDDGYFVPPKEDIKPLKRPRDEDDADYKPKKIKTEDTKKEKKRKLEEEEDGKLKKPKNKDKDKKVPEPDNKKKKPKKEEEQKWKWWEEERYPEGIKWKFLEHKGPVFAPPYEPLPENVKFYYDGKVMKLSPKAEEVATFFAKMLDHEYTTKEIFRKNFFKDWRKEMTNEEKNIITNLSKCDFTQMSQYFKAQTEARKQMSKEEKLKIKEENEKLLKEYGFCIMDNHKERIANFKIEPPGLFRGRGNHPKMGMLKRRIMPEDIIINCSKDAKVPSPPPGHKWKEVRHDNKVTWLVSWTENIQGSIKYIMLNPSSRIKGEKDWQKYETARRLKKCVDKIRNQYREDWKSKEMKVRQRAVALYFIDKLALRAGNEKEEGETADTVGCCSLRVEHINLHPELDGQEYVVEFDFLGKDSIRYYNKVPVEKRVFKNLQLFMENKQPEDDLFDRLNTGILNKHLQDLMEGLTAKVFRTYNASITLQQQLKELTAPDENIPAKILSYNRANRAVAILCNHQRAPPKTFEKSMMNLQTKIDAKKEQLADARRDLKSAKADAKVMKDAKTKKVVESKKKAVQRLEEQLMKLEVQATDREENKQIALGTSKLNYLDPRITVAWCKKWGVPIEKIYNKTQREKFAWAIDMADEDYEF
Procedure: Biotinylated linear DNA was attached to the flow cell via straptavidin. Top 1 (5, 10 and 20 nM) was applied.

HCT 116 tumor = assay: In vivo HCT 116 tumor xenograft in nude mice; set-up: species or system nude (BalbC nu/nu) mice; conditions: all doses tested, i.p.
Procedure: In vivo mouse studies: HCT 116 cells (4×10^6) were injected into the flanks of nude (BalbC nu/nu) mice for both experiments. The animals were randomized when the tumors were staged at 50 mm^3. In the first experiment, control animals were administered 0.1 ml of vehicle (α-MEM containing 0.05% methylcarboxycellulose and 2% DMSO) i.p., in the absence of peptide (PBS, control #1) or presence of T1BP2-T (control #2, 150 μg in 0.1 ml PBS) or T1BP3-T (control #3, 150 μg in 0.1 ml PBS) injected s.c. at site of tumor. […] Animals treated with 9AC were divided into 4 groups, each containing 5 mice. T1BP-T and PBS subcutaneous injections were administered as described above at the site of the tumor, 30 minutes after the i.p. injection of 9AC in a 50 μl volume. 9AC was dissolved in vehicle. Groups consisted of animals treated with a total of 4 mg/kg 9AC (low dose) in the absence or presence of T1BP2-T or a total of 8 mg/kg 9AC (high dose). Animals were treated with 1 or 2 mg/kg doses, twice a week over 2 weeks. In the second experiment, 18 mice were evaluated in three groups of six animals. Control animals were injected i.p. with 0.1 ml of vehicle (α-MEM containing 0.05% methylcarboxycellulose and 2% DMSO). […]

| Compound | top 1 dissociation from DNA (top 1-DNA binding) | anti-tumor effect of 9AC alone (HCT 116 tumor) |
| --- | --- | --- |
| DRVPLVHVIFNSFGY [CPP4] | dissociation is slowed |  |
| CC[C@@]1(O)C(=O)OCc2c1cc1n(c2=O)Cc2cc3c(N)cccc3nc2-1 [9AC, 9-amino camptothecin] |  | significant anti-tumor effects |
